This note sets out measurements from patent US20240092907A1 (Five Prime, published 2024).

Assay [1] concerns the target avidin (ThermoFisher Scientific catalog #21128) (UniProt P02701 25-152). Briefly: SPR 25C, Ab on Protein A, pH 6.0 and 7.4. The method, then:
(§1) Protein A (ThermoFisher Scientific catalog #21181) was diluted to 20 ug/ml in 10 mM sodium acetate pH 4.5 and immobilized onto flow cells of a CM3 biosensor following the manufacturer's amine coupling protocol (GE Healthcare), targeting 800 RU immobilization density of Protein A per flow cell. SPR experiments were conducted at 25° C. using PBST (137 mM sodium chloride, 2.7 mM potassium chloride, 10 mM phosphate buffer, 0.05% Tween 20) running buffer at pH 7.4 and 6.0. Antibodies (formatted as IgG1.3 antibodies) were diluted to 50 nM in PBST pH 7.4, and were captured across active biosensor flow cells at 5 ul/min for 60 seconds. […] Two 15 second injections of 10 mM glycine pH 1.5 were used to regenerate the Protein A capture surface between assay cycles. Reference flow cell and 0 nM blank-subtracted sensorgrams were inspected using Biacore® T200 Evaluation Software v.2.0.

Assay [2] has as its target BSA (Calbiochem catalog #126593) (UniProt P02769 25-607). Kind of assay: SPR 25C, Ab on Protein A, pH 6.0 and 7.4. How it is done: as §1
In assay [3] the target is T1, recombinant hVISTA ECD multimer (monobiotinylated hVISTA ECD on PE-streptavidin dextramers) (human, UniProt Q9H7M9 33-194, limits assumed, monobiotinylated).
T1 construct: Loaded at a 28:1 molar ratio onto PE-conjugated streptavidin dextramers; also called VISTA multimer; hVISTA-loaded dextramers
T1 sequence (looked up): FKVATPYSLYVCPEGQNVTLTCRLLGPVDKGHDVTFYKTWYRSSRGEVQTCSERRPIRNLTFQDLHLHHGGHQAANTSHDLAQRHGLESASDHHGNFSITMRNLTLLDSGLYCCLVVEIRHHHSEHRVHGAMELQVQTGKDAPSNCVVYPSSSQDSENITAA
Briefly: flow cytometry, blocking of VISTA multimer binding to activated human CD4+ T cells, pH 6.0. The method, then: As a control, activated CD4+ T cells were stained with PE-conjugated streptavidin dextramers that were not loaded with hVISTA. The stained cells were washed with HBSS+ MES and acquired on a flow cytometer. Data were analyzed using FlowJo™ software (BD Biosciences). […] Left, from darker gray to lighter, the filled histograms depict binding at pH 7.0, 6.5, 6.4, 6.3, 6.1, and 6.0. Some histograms are labeled with their corresponding pH. Non-VISTA control multimer binding at pH 6.0 is shown as the unfilled histogram. Right, graphed PE mean fluorescence intensities (MFI) of CD4+ T cells stained with hVISTA-loaded dextramers (blue circles) or with non-loaded dextramers (triangles) at various pH.
This blocking assay was performed as described in Example 4.

Residue numbers refer to the chain shown, from its start.

Sequence of avidin (ThermoFisher Scientific catalog #21128) (P02701 25-152 limits assumed): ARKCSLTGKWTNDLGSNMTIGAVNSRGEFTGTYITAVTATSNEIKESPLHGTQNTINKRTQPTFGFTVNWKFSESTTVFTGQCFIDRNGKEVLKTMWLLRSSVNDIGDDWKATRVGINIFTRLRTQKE
Sequence of BSA (Calbiochem catalog #126593) (P02769 25-607 limits assumed): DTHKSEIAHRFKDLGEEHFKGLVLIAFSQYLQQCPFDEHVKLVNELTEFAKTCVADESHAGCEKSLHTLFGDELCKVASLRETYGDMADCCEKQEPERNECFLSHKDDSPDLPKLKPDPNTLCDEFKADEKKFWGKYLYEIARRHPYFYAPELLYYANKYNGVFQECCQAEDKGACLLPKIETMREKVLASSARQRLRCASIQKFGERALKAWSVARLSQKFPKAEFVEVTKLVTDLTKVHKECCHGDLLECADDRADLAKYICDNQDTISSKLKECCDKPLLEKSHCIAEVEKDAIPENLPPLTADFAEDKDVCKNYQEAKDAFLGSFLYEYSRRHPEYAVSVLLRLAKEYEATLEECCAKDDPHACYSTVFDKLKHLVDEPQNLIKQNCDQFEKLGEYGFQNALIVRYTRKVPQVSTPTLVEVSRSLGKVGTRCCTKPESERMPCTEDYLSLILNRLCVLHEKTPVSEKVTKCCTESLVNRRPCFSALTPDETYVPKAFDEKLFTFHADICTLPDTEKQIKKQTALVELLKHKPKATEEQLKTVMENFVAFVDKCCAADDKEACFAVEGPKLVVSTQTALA

B1: P1-061029.IgG1.3 (antibody)
heavy: EVQLVESGGGLVQPGKSLRLSCAASGFTLDDYAMHWVRQAPGKGLEWVSGINWNSANIGYADSVKGRFTISRDNAKNSLYLQMNSLRTEDTALYYCAKVPGYSGGWIDAFDVWGQGTMVTVSSASTKGPSVFPLAPSSKSTSGGTAALGCLVKDYFPEPVTVSWNSGALTSGVHTFPAVLQSSGLYSLSSVVTVPSSSLGTQTYICNVNHKPSNTKVDKRVEPKSCDKTHTCPPCPAPEAEGAPSVFLFPPKPKDTLMISRTPEVTCVVVDVSHEDPEVKFNWYVDGVEVHNAKTKPREEQYNSTYRVVSVLTVLHQDWLNGKEYKCKVSNKALPAPIEKTISKAKGQPREPQVYTLPPSREEMTKNQVSLTCLVKGFYPSDIAVEWESNGQPENNYKTTPPVLDSDGSFFLYSKLTVDKSRWQQGNVFSCSVMHEALHNHYTQKSLSLSPG
light: not shown
notes: IgG1.3; also called parent; hIgG1.3f
In the case of B1, the binding result in assay [1] and in assay [2] was “no binding (tested: 100-10 nM; binding defined as >10 RU)” throughout. In assay [3], the “IC50 (read off the curve)” value was ~0.04 µg/mL.

B2: P1-068767.IgG1.3 (antibody, V domains shown)
VH: EVQLVESGGGLVQPGKSLRLSCAASGFTLEDYAMHWVRQAPGKGLEWVSGIDWNSENIGYADSVKGRFTISRDNAKNSLYLQMNSLRTEDTALYYCAKVPGYSGGWIDAEDDWGQGTMVTVSS
VL: not shown
notes: IgG1.3; also called hIgG1.3f; printed once as P1-068768
For the molecule B2, the binding result in assay [1] and in assay [2] was “no binding (tested: 100-10 nM; binding defined as >10 RU)” in each case.

B3: P1-068761.IgG1.3 (antibody)
heavy: B1 heavy with D30E, Y32E, A56E, N57E, G104H, F110E
light: not shown
notes: IgG1.3; also called hIgG1.3f
B3: the binding result in assay [1] and in assay [2] was “no binding (tested: 100-10 nM; binding defined as >10 RU)” each time.
